# Assay results published in PMC3485694 (Structure (London, England : 1993), 2012).
# B1: human HisRS Δ507–509 (domain or fragment, UniProt P12081 1-506, looked up)
# chain: MAERAALEELVKLQGERVRGLKQQKASAELIEEEVAKLLKLKAQLGPDESKQKFVLKTPKGTRDYSPRQMAVREKVFDVIIRCFKRHGAEVIDTPVFELKETLMGKYGEDSKLIYDLKDQGGELLSLRYDLTVPFARYLAMNKLTNIKRYHIAKVYRRDNPAMTRGRYREFYQCDFDIAGNFDPMIPDAECLKIMCEILSSLQIGDFLVKVNDRRILDGMFAICGVSDSKFRTICSSVDKLDKVSWEEVKNEMVGEKGLAPEVADRIGDYVQQHGGVSLVEQLLQDPKLSQNKQALEGLGDLKLLFEYLTLFGIDDKISFDLSLARGLDYYTGVIYEAVLLQTPAQAGEEPLGVGSVAAGGRYDGLVGMFDPKGRKVPCVGLSIGVERIFSIVEQRLEALEEKIRTTETQVLVASAQKKLLEERLKLVSELWDAGIKAELLYKKNPKLLNQLQYCEEAGIPLVAIIGEQELKDGVIKLRSVTSREEVDVRREDLVEEIKRRTGQPL
# B2: human HisRS Δ1–53_507–509 (domain or fragment, UniProt P12081 54-506, looked up)
# chain: FVLKTPKGTRDYSPRQMAVREKVFDVIIRCFKRHGAEVIDTPVFELKETLMGKYGEDSKLIYDLKDQGGELLSLRYDLTVPFARYLAMNKLTNIKRYHIAKVYRRDNPAMTRGRYREFYQCDFDIAGNFDPMIPDAECLKIMCEILSSLQIGDFLVKVNDRRILDGMFAICGVSDSKFRTICSSVDKLDKVSWEEVKNEMVGEKGLAPEVADRIGDYVQQHGGVSLVEQLLQDPKLSQNKQALEGLGDLKLLFEYLTLFGIDDKISFDLSLARGLDYYTGVIYEAVLLQTPAQAGEEPLGVGSVAAGGRYDGLVGMFDPKGRKVPCVGLSIGVERIFSIVEQRLEALEEKIRTTETQVLVASAQKKLLEERLKLVSELWDAGIKAELLYKKNPKLLNQLQYCEEAGIPLVAIIGEQELKDGVIKLRSVTSREEVDVRREDLVEEIKRRTGQPL
# Target: the molecule itself
# Assay: crystal structure
Protein,binding result,stoichiometry N
B1,binds,
B2,,2
